Measured values taken from PMC8424649 (2021).

B1: GFP-FAN1, full-length FAN1 (FAN1^FL) [human] / MLH1 (endogenous, human) [human (endogenous in iPSCs, lymphoblastoid cells, U2OS, HEK293T, MSNs, HeLa)] (parent complex)
chain 1: MMSEGKPPDKKRPRRSLSISKNKKKASNSIISCFNNAPPAKLACPVCSKMVPRYDLNRHLDEMCANNDFVQVDPGQVGLINSNVSMVDLTSVTLEDVTPKKSPPPKTNLTPGQSDSAKREVKQKISPYFKSNDVVCKNQDELRNRSVKVICLGSLASKLSRKYVKAKKSIDKDEEFAGSSPQSSKSTVVKSLIDNSSEIEDEDQILENSSQKENVFKCDSLKEECIPEHMVRGSKIMEAESQKATRECEKSALTPGFSDNAIMLFSPDFTLRNTLKSTSEDSLVKQECIKEVVEKREACHCEEVKMTVASEAKIQLSDSEAKSHSSADDASAWSNIQEAPLQDDSCLNNDIPHSIPLEQGSSCNGPGQTTGHPYYLRSFLVVLKTVLENEDDMLLFDEQEKGIVTKFYQLSATGQKLYVRLFQRKLSWIKMTKLEYEEIALDLTPVIEELTNAGFLQTESELQELSEVLELLSAPELKSLAKTFHLVNPNGQKQQLVDAFLKLAKQRSVCTWGKNKPGIGAVILKRAKALAGQSVRICKGPRAVFSRILLLFSLTDSMEDEDAACGGQGQLSTVLLVNLGRMEFPSYTINRKTHIFQDRDDLIRYAAATHMLSDISSAMANGNWEEAKELAQCAKRDWNRLKNHPSLRCHEDLPLFLRCFTVGWIYTRILSRFVEILQRLHMYEEAVRELESLLSQRIYCPDSRGRWWDRLALNLHQHLKRLEPTIKCITEGLADPEVRTGHRLSLYQRAVRLRESPSCKKFKHLFQQLPEMAVQDVKHVTITGRLCPQRGMCKSVFVMEAGEAADPTTVLCSVEELALAHYRRSGFDQGIHGEGSTFSTLYGLLLWDIIFMDGIPDVFRNACQAFPLDLCTDSFFTSRRPALEARLQLIHDAPEESLRAWVAATWHEQEGRVASLVSWDRFTSLQQAQDLVSCLGGPVLSGVCRHLAADFRHCRGGLPDLVVWNSQSRHFKLVEVKGPNDRLSHKQMIWLAELQKLGAEVEVCHVVAVGAKSQSLS
chain 2: MSFVAGVIRRLDETVVNRIAAGEVIQRPANAIKEMIENCLDAKSTSIQVIVKEGGLKLIQIQDNGTGIRKEDLDIVCERFTTSKLQSFEDLASISTYGFRGEALASISHVAHVTITTKTADGKCAYRASYSDGKLKAPPKPCAGNQGTQITVEDLFYNIATRRKALKNPSEEYGKILEVVGRYSVHNAGISFSVKKQGETVADVRTLPNASTVDNIRSIFGNAVSRELIEIGCEDKTLAFKMNGYISNANYSVKKCIFLLFINHRLVESTSLRKAIETVYAAYLPKNTHPFLYLSLEISPQNVDVNVHPTKHEVHFLHEESILERVQQHIESKLLGSNSSRMYFTQTLLPGLAGPSGEMVKSTTSLTSSSTSGSSDKVYAHQMVRTDSREQKLDAFLQPLSKPLSSQPQAIVTEDKTDISSGRARQQDEEMLELPAPAEVAAKNQSLEGDTTKGTSEMSEKRGPTSSNPRKRHREDSDVEMVEDDSRKEMTAACTPRRRIINLTSVLSLQEEINEQGHEVLREMLHNHSFVGCVNPQWALAQHQTKLYLLNTTKLSEELFYQILIYDFANFGVLRLSEPAPLFDLAMLALDSPESGWTEEDGPKEGLAEYIVEFLKKKAEMLADYFSLEIDEEGNLIGLPLLIDNYVPPLEGLPIFILRLATEVNWDEEKECFESLSKECAMFYSIRKQYISEESTLSGQQSEVPGSIPNSWKWTVEHIVYKALRSHILPPKHFTEDGNILQLANLPDLYKVFERC

Variants of: B1
Assay: GFP-Trap pull-down, quantified immunoblot; U2OS cell extracts; n = 5 biological replicates; parent: 100; read off a plot

**Q.** chain 1 S126A was tested. Which percent of parent did it give?
**A.** ~10

**Q.** How did the percent of parent turn out when chain 1 Q123A was run?
**A.** ~110

**Q.** chain 1 F129A was tested. Which percent of parent did it give?
**A.** ~5

**Q.** chain 1 Y128A was tested. Which percent of parent did it give?
**A.** ~1
